Experimental findings from publication PMC11257990, “Noncanonical assembly, neddylation and chimeric cullin–RING/RBR ubiquitylation by the 1.8 MDa CUL9 E3 ligase complex” (Nature Structural & Molecular Biology, 2024) are described below.

The assay has as its target T1, UBE2L3 (human, UniProt P68036 1-154).
T1 construct: UBE2L3, human; source: E. coli Rosetta 2 (DE3), purified (glutathione sepharose, TEV cleavage, ion exchange, SEC)
Nature of the assay: ITC; E2 (300–500 μM) in the syringe, CUL9^ARIH-RBR (25 μM) in the cell; 25 °C; 25 mM HEPES pH 7.5, 150 mM NaCl, 0.5 mM TCEP; 19 × 2 μl injections; single-site model. Conditions: both partners purified.

T1 sequence (P68036 whole entry): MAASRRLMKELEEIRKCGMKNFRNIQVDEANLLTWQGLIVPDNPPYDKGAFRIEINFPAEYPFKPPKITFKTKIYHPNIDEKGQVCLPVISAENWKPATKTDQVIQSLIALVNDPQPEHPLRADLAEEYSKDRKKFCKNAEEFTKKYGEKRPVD

B1: CUL9^ARIH-RBR (domain or fragment, human, UniProt Q8IWT3 1979-2517, looked up)
chain: SPEAVATLASLQLPAGRTMSPQEVEGLMKQTVRQVQETLNLEPDVAQHLLAHSHWGAEQLLQSYSEDPEPLLLAAGLCVHQAQAVPVRPDHCPVCVSPLGCDDDLPSLCCMHYCCKSCWNEYLTTRIEQNLVLNCTCPIADCPAQPTGAFIRAIVSSPEVISKYEKALLRGYVESCSNLTWCTNPQGCDRILCRQGLGCGTTCSKCGWASCFNCSFPEAHYPASCGHMSQWVDDGGYYDGMSVEAQSKHLAKLISKRCPSCQAPIEKNEGCLHMTCAKCNHGFCWRCLKSWKPNHKDYYNCSAMVSKAARQEKRFQDYNERCTFHHQAREFAVNLRNRVSAIHEVPPPRSFTFLNDACQGLEQARKVLAYACVYSFYSQDAEYMDVVEQQTENLELHTNALQILLEETLLRCRDLASSLRLLRADCLSTGMELLRRIQERLLAILQHSAQDFRVGLQSPSVEAWEAKGPNMPGSQPQASSGPEAEEEEEDDEDDVPEWQQDEFDEELDNDSFSYDESENLDQETFFFGDEEEDEDEAYD
notes: CUL9, human, ARIH-RBR element, residues 1979-2517; also called CUL9 RBR element; source: HEK293S, baculovirus infection, without RBX1, purified; not shown: TwinStrep, N-terminal, cleaved
As for B1, the binding result was “binds”.
